Several values for one entry are separate records, joined by “and”; a condition that tells them apart may be missing. Equal values may be shown once.
Tests used:
cyno GHR = assay: Biacore kinetics and affinity, captured IgG, cyno GHR analyte, 25° C.; format: binding, cynomolgus monkey; conditions: IgG immobilized by capture
Experimental: (§1) The affinity of a mouse anti-GHR antibody, Ab13, to human and cyno GHR was measured on a Biacore™ 2000 biosensor (GE Lifesciences™, Piscataway N.J.). An anti-mouse Ig sensor surface was prepared using a Biacore™ CM5 chip and reagents from the Biacore™ mouse antibody capture kit (GE Lifesciences™, Catalog# BR-1008-38), using instructions provided by the manufacturer.
(§2) The kinetics assay was run using a kinetic titration methodology as described in Karlsson et al., 2006, Anal. Biochem 349, 136-147. The mouse antibody, Ab13, was captured onto downstream flow cells at 0.5 μg/mL at a flow rate of 5 μL/min for 1 minute, 2 minutes and 4 minutes on flow cells 2, 3 and 4 respectively. Flow cell 1 was used as a reference surface. […]
(§3) The affinities of a humanized GHR antibody, SS1, and a chimeric molecule comprising the Fab of Ab13 fused to a human Fc domain (“Ab13-hFc”) to human and cyno GHR was measured on a Biacore™ 2000 biosensor (GE Lifesciences™ Piscataway N.J.). […]
(§4) The kinetics assay was run using a methodology with varying dissociation times as described in Katsamba et al., 2006, Anal. Biochem 352, 208-221. […] After the analyte injection, dissociation was monitored for 30 minutes (for the 400 nM GHR cycle) or 30 seconds (all other cycles) followed by regeneration of all flow cells with two 30-second injections of 75 mM phosphoric acid. […]

human GHR = molecular target: T1, human GHR (Homo sapiens, UniProt P10912); assay: Biacore kinetics and affinity, captured IgG, human GHR analyte, 25° C.; format: binding; conditions: IgG immobilized by capture
T1 construct: his-tagged monomers of amino acids 31-235 of the extracellular domain of the human or cyno GHR
T1 sequence (P10912 49-253): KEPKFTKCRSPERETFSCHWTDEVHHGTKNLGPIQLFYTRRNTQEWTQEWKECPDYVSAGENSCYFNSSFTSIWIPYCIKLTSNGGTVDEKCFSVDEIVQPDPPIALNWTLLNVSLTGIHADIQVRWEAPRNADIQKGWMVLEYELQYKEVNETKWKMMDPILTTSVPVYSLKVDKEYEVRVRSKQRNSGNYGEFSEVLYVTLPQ
Experimental: as §1, §2, §3, §4

cyno GHR, sequence (as listed by the source): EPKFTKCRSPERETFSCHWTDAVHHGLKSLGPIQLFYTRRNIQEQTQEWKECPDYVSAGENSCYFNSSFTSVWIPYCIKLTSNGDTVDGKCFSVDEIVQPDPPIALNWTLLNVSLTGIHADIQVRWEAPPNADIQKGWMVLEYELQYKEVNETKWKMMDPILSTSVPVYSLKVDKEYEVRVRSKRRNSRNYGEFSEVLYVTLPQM

B1: SS1: humanized GHR antagonist antibody; VL SEQ ID NO: 7, VH SEQ ID NO: 8; hIgG2Δa heavy chain SEQ ID NO: 134, light chain SEQ ID NO: 135 (antibody)
heavy: EVQLVESGGGLVKPGGSLRLSCAASGFTFSDAWMDWVRQAPGKGLEWVAEIRSKANYHATYYAESVKGRFTISRDDSKNTLYLQMNSLKTEDTAVYYCTLIRDYWGQGTLVTVSSASTKGPSVFPLAPCSRSTSESTAALGCLVKDYFPEPVTVSWNSGALTSGVHTFPAVLQSSGLYSLSSVVTVPSSNFGTQTYTCNVDHKPSNTKVDKTVERKCCVECPPCPAPPVAGPSVFLFPPKPKDTLMISRTPEVTCVVVDVSHEDPEVQFNWYVDGVEVHNAKTKPREEQFNSTFRVVSVLTVVHQDWLNGKEYKCKVSNKGLPSSIEKTISKTKGQPREPQVYTLPPSREEMTKNQVSLTCLVKGFYPSDIAVEWESNGQPENNYKTTPPMLDSDGSFFLYSKLTVDKSRWQQGNVFSCSVMHEALHNHYTQKSLSLSPGK
light: EIVLTQSPGTLSLSPGERATLSCTATSSVSSSYLNWYQQKPGQAPRLLIYSTSNLASGIPDRFSGSGSGTDFTLTISRLEPEDFAVYYCHQYHRSTPTFGGGTKVEIKRTVAAPSVFIFPPSDEQLKSGTASVVCLLNNFYPREAKVQWKVDNALQSGNSQESVTEQDSKDSTYSLSSTLTLSKADYEKHKVYACEVTHQGLSSPVTKSFNRGEC
modifications: Humanized and/or affinity matured antibody sequence
- ka (cyno GHR): 89000 M⁻¹ s⁻¹ and 81000 M⁻¹ s⁻¹
- kd (cyno GHR): 0.00011 s⁻¹ and 0.0001 s⁻¹
- ka (human GHR): 77000 M⁻¹ s⁻¹ and 74000 M⁻¹ s⁻¹
- kd (human GHR): 6.4e-05 s⁻¹ and 7.7e-05 s⁻¹
